Our source for the amyloid nucleation score values is the supplement of paper PMC12042874.

± gives the uncertainty stated by the source.

This series can be described thus: amyloid nucleation score (Sup35N fusion, yeast selection) (log enrichment); library NNK3; higher = more nucleation; inactive = no reads after selection. A digest of the protocol:
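DiMSum was used to calculate nucleation scores as log enrichment of output over input reads, centred on the mode score of non-aggregating sequences. Sequences with fewer than 100 input reads were not scored. Input and output came from Illumina sequencing of plasmid inserts in psi-negative yeast expressing peptides of 20 random codons fused to Sup35N, induced 24 hours with 100 μM copper sulfate and then grown 7 days at 30°C on medium lacking adenine and uracil.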
Turning to YLDFDRMFVQCEFCLTDLDL, the amyloid nucleation score came out at 0.59 ± 0.13. Regarding YLESGLTS, the amyloid nucleation score entry is “inactive”.

With YLFSSMLVILTCFRT, the amyloid nucleation score entry is “inactive”. As for YLGESWTVPALYVRSDMMFV, the amyloid nucleation score entry was “inactive”. The same measure for YLKGTMSDSKNGPYDRGKLT: “inactive”; for YLMYLGSFSAMLREKWQL: “inactive”. Under YLNFIGTLEV stands “inactive”. On to YLNSYQDIYVRCVLELLYSS, for which the amyloid nucleation score result is “inactive”.

In the case of YLNVVWYGALTWSDARFRNL, the amyloid nucleation score result was “inactive”. The same measure for YLSIGSVSMSAGASANDAQ: “inactive”; for YLSPEAQKLDQIDSMSADMV: “inactive”. With YLWEYSEMLSTDI, the amyloid nucleation score result was “inactive”. For YLWLWASWSWRGNQNKTSWA, the amyloid nucleation score result is “inactive”. Regarding YLWPLFFSFE, the amyloid nucleation score result was “inactive”. With YLYGGQRVGSF, the amyloid nucleation score entry was “inactive”.

As to YLYSCDSFCFLDPRYMRCPE, the amyloid nucleation score result is “inactive”. Under YMCSLLMIAKSMPGRG stands 1.42 ± 0.14; under YMDLSILGAMVSVSFNMG, 2.56 ± 0.063; under YMGCIYIPYVKFYFKM, 1.26 ± 0.081. The same measure for YMGLTLSVMRPGMTYFPKMF: “inactive”.

Turning to YMIATGTVGWNRLTLKCVVV, the amyloid nucleation score entry was “inactive”. Under YMLQVRCSVDLFVLDTMCFL stands “inactive”. Under YMSYRSLMNSLTSIL stands “inactive”. Regarding YNCRVAVRWYS, the amyloid nucleation score entry was “inactive”. Turning to YNGLVGLSNPCTIWESGWVW, the amyloid nucleation score entry is “inactive”. Under YNLSNTVLAISVGERNT stands “inactive”; under YNMTLTYLRLLGAGSIISCL, “inactive”. Under YNQCWLTIDINFRYLLA stands 1.4 ± 0.15; under YNSLRGR, “inactive”; under YNVFEALLNRWH, “inactive”. YPALINSVFITDAIGGPYCL: the amyloid nucleation score result is “inactive”.

As for YPLCEL, the amyloid nucleation score turned out to be 0.193 ± 0.19. Under YPMLLALYTGSVFNFNRCRL stands 2.07 ± 0.089; under YPMTQALVTSWVLHCTAMKM, “inactive”. On to YPRDWGYALRLYYVEKKLR, for which the amyloid nucleation score entry is “inactive”.

Substance YPTWKGIFNRWAEYCIRLPV registered an amyloid nucleation score of -0.266 ± 0.36.

As to YQCSASFYRTNVGPSTGHQL, the amyloid nucleation score worked out at 1.13 ± 0.11. Under YQRLHSL stands “inactive”. The same measure for YRAIVSHNAMTPV: “inactive”; for YREREAAR: “inactive”; for YRFSRFKMRAVPTMILKLNV: -0.056 ± 0.35.

Consider YRGWLNPEYHRLVN, for which the amyloid nucleation score worked out at 0.008 ± 0.85. The same measure for YRIGCRF: “inactive”. With YRIVLIFCEISNAMGVVQTS, the amyloid nucleation score result is “inactive”. Under YRIYFLRCPDLTRMFNFVEL stands “inactive”; under YRMICPAIV, “inactive”; under YRMNDGNDGICMVWLRNSAY, “inactive”. Under YRNSC stands “inactive”.

Regarding YRSTLEKVSVGMMENICVGI, the amyloid nucleation score was 0.028 ± 0.2.

In the case of YRTRESGLY, the amyloid nucleation score is -0.425 ± 1.1.

On to YSESMRGNQ, for which the amyloid nucleation score entry was “inactive”. Under YSFDASTYIYVSGRLFNKSV stands “inactive”. Under YSGTKY stands “inactive”; under YSINTFLICYYMVRPY, 2.36 ± 0.065; under YSIVRGWMDARDLHMLHLEI, “inactive”.
